Experimental data published in patent publication US20260242419A1, “A CYCLIC PEPTIDE FOR TRAPPING INTERLEUKIN-1 BETA” (Merck Sharp & Dohme LLC, priority 2023, published 2026).
Starred links: 1 amine or outer side, 2 acyl side, 3 side chain; linkers in the order of their positions; H or OH if unused. Non-standard residues stand in square brackets, D forms with d. 2PyrimAla = (2S)-2-amino-3-(pyrimidin-2-yl)propanoic acid, O=C([C@H](Cc1ncccn1)N[*:1])[*:2]; F4ptCCA = trans-4-[4-(2-amino-2-carboxyethyl)phenyl]cyclohexanecarboxylic acid; Phe(4-(cis-4-COOH-cHex)) = N[C@@H](Cc1ccc([C@H]2CC[C@@H](C(=O)O)CC2)cc1)C(=O)O; dPro(4R-(4-pyridylmethyl)) = O=C(O)[C@H]1C[C@@H](Cc2ccncc2)CN1; Trp(βS-Me,4-F) = C[C@@H](c1c[nH]c2cccc(F)c12)[C@H](N)C(=O)O; Bip(4'-COOH) = N[C@@H](Cc1ccc(-c2ccc(C(=O)O)cc2)cc1)C(=O)O; Ala(1-bicyclo(1.1.1)pentyl) = N[C@@H](CC12CC(C1)C2)C(=O)O; dPro(4R-Bzl(4-F)) = O=C(O)[C@H]1C[C@@H](Cc2ccc(F)cc2)CN1; Ala(pyrimidin-5-yl) = N[C@@H](Cc1cncnc1)C(=O)O; Phe(4-COOH) = N[C@@H](Cc1ccc(C(=O)O)cc1)C(=O)O; Ala(4-Pyridazinyl) = N[C@@H](Cc1ccnnc1)C(=O)O; Ala(2-pyrazinyl) = N[C@@H](Cc1cnccn1)C(=O)O; Pro(cis-4-F) = O=C(O)[C@@H]1C[C@H](F)CN1; Ala(4-THP) = N[C@@H](CC1CCOCC1)C(=O)O; 4Pal = N[C@@H](Cc1ccncc1)C(=O)O; d(αMeS) = C[C@@](N)(CO)C(=O)O; Orn = NCCC[C@H](N)C(=O)O; Dab = NCC[C@H](N)C(=O)O; Aib = CC(C)(N)C(=O)O

B1: SEQ ID NO: 113 (peptide)
peptide: cyclo([Bip(4'-COOH)][4Pal][Phe(4-COOH)]G[Pro(cis-4-F)][Trp(βS-Me,4-F)][Aib]EW[Aib][2PyrimAla]Q[Dab]G[dPro(4R-Bzl(4-F))])
SMILES: C[C@@H](c1c[nH]c2cccc(F)c12)[C@@H]1NC(=O)[C@@H]2C[C@H](F)CN2C(=O)CNC(=O)[C@H](Cc2ccc(C(=O)O)cc2)NC(=O)[C@H](Cc2ccncc2)NC(=O)[C@H](Cc2ccc(-c3ccc(C(=O)O)cc3)cc2)NC(=O)[C@H]2C[C@@H](Cc3ccc(F)cc3)CN2C(=O)CNC(=O)[C@H](CCN)NC(=O)[C@H](CCC(N)=O)NC(=O)[C@H](Cc2ncccn2)NC(=O)C(C)(C)NC(=O)[C@H](Cc2c[nH]c3ccccc23)NC(=O)[C@H](CCC(=O)O)NC(=O)C(C)(C)NC1=O
B2: SEQ ID NO: 116 (peptide)
peptide: cyclo([Bip(4'-COOH)][Ala(4-Pyridazinyl)][Phe(4-COOH)]G[Pro(cis-4-F)][Trp(βS-Me,4-F)][Aib]EW[Aib][Ala(pyrimidin-5-yl)]Q[Dab]G[dPro(4R-Bzl(4-F))])
SMILES: C[C@@H](c1c[nH]c2cccc(F)c12)[C@@H]1NC(=O)[C@@H]2C[C@H](F)CN2C(=O)CNC(=O)[C@H](Cc2ccc(C(=O)O)cc2)NC(=O)[C@H](Cc2ccnnc2)NC(=O)[C@H](Cc2ccc(-c3ccc(C(=O)O)cc3)cc2)NC(=O)[C@H]2C[C@@H](Cc3ccc(F)cc3)CN2C(=O)CNC(=O)[C@H](CCN)NC(=O)[C@H](CCC(N)=O)NC(=O)[C@H](Cc2cncnc2)NC(=O)C(C)(C)NC(=O)[C@H](Cc2c[nH]c3ccccc23)NC(=O)[C@H](CCC(=O)O)NC(=O)C(C)(C)NC1=O
B3: SEQ ID NO: 118 (peptide)
peptide: cyclo([Bip(4'-COOH)][4Pal][Phe(4-COOH)]G[Pro(cis-4-F)][Trp(βS-Me,4-F)][Aib]EW[Aib][Ala(4-THP)]Q[Dab]G[dPro(4R-Bzl(4-F))])
SMILES: C[C@@H](c1c[nH]c2cccc(F)c12)[C@@H]1NC(=O)[C@@H]2C[C@H](F)CN2C(=O)CNC(=O)[C@H](Cc2ccc(C(=O)O)cc2)NC(=O)[C@H](Cc2ccncc2)NC(=O)[C@H](Cc2ccc(-c3ccc(C(=O)O)cc3)cc2)NC(=O)[C@H]2C[C@@H](Cc3ccc(F)cc3)CN2C(=O)CNC(=O)[C@H](CCN)NC(=O)[C@H](CCC(N)=O)NC(=O)[C@H](CC2CCOCC2)NC(=O)C(C)(C)NC(=O)[C@H](Cc2c[nH]c3ccccc23)NC(=O)[C@H](CCC(=O)O)NC(=O)C(C)(C)NC1=O
B4: SEQ ID NO: 111 (peptide)
peptide: cyclo([Bip(4'-COOH)][4Pal][Phe(4-COOH)]G[Pro(cis-4-F)][Trp(βS-Me,4-F)][Aib]SW[d(αMeS)][Ala(pyrimidin-5-yl)]Q[Dab]G[dPro(4R-(4-pyridylmethyl))])
SMILES: C[C@@H](c1c[nH]c2cccc(F)c12)[C@@H]1NC(=O)[C@@H]2C[C@H](F)CN2C(=O)CNC(=O)[C@H](Cc2ccc(C(=O)O)cc2)NC(=O)[C@H](Cc2ccncc2)NC(=O)[C@H](Cc2ccc(-c3ccc(C(=O)O)cc3)cc2)NC(=O)[C@H]2C[C@@H](Cc3ccncc3)CN2C(=O)CNC(=O)[C@H](CCN)NC(=O)[C@H](CCC(N)=O)NC(=O)[C@H](Cc2cncnc2)NC(=O)[C@@](C)(CO)NC(=O)[C@H](Cc2c[nH]c3ccccc23)NC(=O)[C@H](CO)NC(=O)C(C)(C)NC1=O
B5: SEQ ID NO: 110 (peptide)
peptide: cyclo([Bip(4'-COOH)][Ala(1-bicyclo(1.1.1)pentyl)][Phe(4-COOH)]G[Pro(cis-4-F)][Trp(βS-Me,4-F)][Aib]SW[Aib][Orn]Q[Dab]G[dPro(4R-Bzl(4-F))])
SMILES: C[C@@H](c1c[nH]c2cccc(F)c12)[C@@H]1NC(=O)[C@@H]2C[C@H](F)CN2C(=O)CNC(=O)[C@H](Cc2ccc(C(=O)O)cc2)NC(=O)[C@H](CC23CC(C2)C3)NC(=O)[C@H](Cc2ccc(-c3ccc(C(=O)O)cc3)cc2)NC(=O)[C@H]2C[C@@H](Cc3ccc(F)cc3)CN2C(=O)CNC(=O)[C@H](CCN)NC(=O)[C@H](CCC(N)=O)NC(=O)[C@H](CCCN)NC(=O)C(C)(C)NC(=O)[C@H](Cc2c[nH]c3ccccc23)NC(=O)[C@H](CO)NC(=O)C(C)(C)NC1=O
B6: SEQ ID NO: 112 (peptide)
peptide: cyclo([Bip(4'-COOH)][Ala(1-bicyclo(1.1.1)pentyl)][Phe(4-COOH)]G[Pro(cis-4-F)][Trp(βS-Me,4-F)][Aib]SW[d(αMeS)][Ala(pyrimidin-5-yl)]Q[Dab]G[dPro(4R-(4-pyridylmethyl))])
SMILES: C[C@@H](c1c[nH]c2cccc(F)c12)[C@@H]1NC(=O)[C@@H]2C[C@H](F)CN2C(=O)CNC(=O)[C@H](Cc2ccc(C(=O)O)cc2)NC(=O)[C@H](CC23CC(C2)C3)NC(=O)[C@H](Cc2ccc(-c3ccc(C(=O)O)cc3)cc2)NC(=O)[C@H]2C[C@@H](Cc3ccncc3)CN2C(=O)CNC(=O)[C@H](CCN)NC(=O)[C@H](CCC(N)=O)NC(=O)[C@H](Cc2cncnc2)NC(=O)[C@@](C)(CO)NC(=O)[C@H](Cc2c[nH]c3ccccc23)NC(=O)[C@H](CO)NC(=O)C(C)(C)NC1=O
B7: SEQ ID NO: 117 (peptide)
peptide: cyclo([Phe(4-(cis-4-COOH-cHex))][4Pal][Phe(4-COOH)]G[Pro(cis-4-F)][Trp(βS-Me,4-F)][Aib]EW[Aib][Ala(2-pyrazinyl)]Q[Dab]G[dPro(4R-Bzl(4-F))])
SMILES: C[C@@H](c1c[nH]c2cccc(F)c12)[C@@H]1NC(=O)[C@@H]2C[C@H](F)CN2C(=O)CNC(=O)[C@H](Cc2ccc(C(=O)O)cc2)NC(=O)[C@H](Cc2ccncc2)NC(=O)[C@H](Cc2ccc([C@H]3CC[C@@H](C(=O)O)CC3)cc2)NC(=O)[C@H]2C[C@@H](Cc3ccc(F)cc3)CN2C(=O)CNC(=O)[C@H](CCN)NC(=O)[C@H](CCC(N)=O)NC(=O)[C@H](Cc2cnccn2)NC(=O)C(C)(C)NC(=O)[C@H](Cc2c[nH]c3ccccc23)NC(=O)[C@H](CCC(=O)O)NC(=O)C(C)(C)NC1=O
B8: SEQ ID NO: 115 (peptide)
peptide: cyclo([Bip(4'-COOH)][4Pal][Phe(4-COOH)]G[Pro(cis-4-F)][Trp(βS-Me,4-F)][Aib]EW[Aib][Ala(4-Pyridazinyl)]Q[Dab]G[dPro(4R-Bzl(4-F))])
SMILES: C[C@@H](c1c[nH]c2cccc(F)c12)[C@@H]1NC(=O)[C@@H]2C[C@H](F)CN2C(=O)CNC(=O)[C@H](Cc2ccc(C(=O)O)cc2)NC(=O)[C@H](Cc2ccncc2)NC(=O)[C@H](Cc2ccc(-c3ccc(C(=O)O)cc3)cc2)NC(=O)[C@H]2C[C@@H](Cc3ccc(F)cc3)CN2C(=O)CNC(=O)[C@H](CCN)NC(=O)[C@H](CCC(N)=O)NC(=O)[C@H](Cc2ccnnc2)NC(=O)C(C)(C)NC(=O)[C@H](Cc2c[nH]c3ccccc23)NC(=O)[C@H](CCC(=O)O)NC(=O)C(C)(C)NC1=O

Molecular target: Recombinant human IL-1β (BioLegend 579404) (human, UniProt P01584 117-269)
Assay: cell-based or functional assay

Binder | MRC5 IC50 [nM]
B1 | 0.018
cyclo([F4ptCCA][4Pal][Phe(4-COOH)]G[Pro(cis-4-F)][Trp(βS-Me,4-F)][Aib]EW[Aib][Ala(pyrimidin-5-yl)]Q[Dab]G[dPro(4R-Bzl(4-F))]) [SEQ ID NO: 114] | 0.035
B2 | 0.04
B3 | 0.016
B4 | 0.019
B5 | 0.038
B6 | 0.018
B7 | 0.027
B8 | 0.023
